Data published in article PMC6336354, “A transient helix in the disordered region of dynein light intermediate chain links the motor to structurally diverse adaptors for cargo transport” (PLoS Biology, 2019).

T1: RILP(1–401)::Strep-tag II (human, UniProt Q96NA2 1-401)
T1 construct: also called RILP::Strep-tag II; source: Sf21 insect cells (baculovirus), purified (Strep-Tactin Sepharose); not shown: Strep-tag II (after linker GSGSGR), C-terminal, kept
T1 sequence (looked up): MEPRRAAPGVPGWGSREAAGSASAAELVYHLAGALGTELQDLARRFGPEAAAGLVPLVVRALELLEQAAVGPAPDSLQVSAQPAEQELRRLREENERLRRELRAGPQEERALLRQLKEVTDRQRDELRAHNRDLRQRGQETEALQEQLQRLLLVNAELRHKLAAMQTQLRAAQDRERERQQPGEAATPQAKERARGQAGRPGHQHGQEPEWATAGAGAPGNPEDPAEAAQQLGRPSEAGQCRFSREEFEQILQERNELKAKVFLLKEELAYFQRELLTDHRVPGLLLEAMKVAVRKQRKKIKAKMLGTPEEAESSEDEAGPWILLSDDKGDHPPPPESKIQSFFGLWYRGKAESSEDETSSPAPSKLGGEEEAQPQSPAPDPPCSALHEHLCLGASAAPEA

T2: HOOK3(2–552)::Strep-tag II (human, UniProt Q86VS8 2-552)
T2 construct: human Hook homolog 3 (HOOK3), residues 2-552; used for the GST pull-downs; also called Hook homolog 3; source: E. coli Rosetta, purified (Ni-NTA, TEV cleavage, Strep-Tactin; dialysis or SEC); not shown: 6xHis::MBP, N-terminal, cleaved; Strep-tag II (after linker GSGSGR), C-terminal, kept
T2 sequence (looked up): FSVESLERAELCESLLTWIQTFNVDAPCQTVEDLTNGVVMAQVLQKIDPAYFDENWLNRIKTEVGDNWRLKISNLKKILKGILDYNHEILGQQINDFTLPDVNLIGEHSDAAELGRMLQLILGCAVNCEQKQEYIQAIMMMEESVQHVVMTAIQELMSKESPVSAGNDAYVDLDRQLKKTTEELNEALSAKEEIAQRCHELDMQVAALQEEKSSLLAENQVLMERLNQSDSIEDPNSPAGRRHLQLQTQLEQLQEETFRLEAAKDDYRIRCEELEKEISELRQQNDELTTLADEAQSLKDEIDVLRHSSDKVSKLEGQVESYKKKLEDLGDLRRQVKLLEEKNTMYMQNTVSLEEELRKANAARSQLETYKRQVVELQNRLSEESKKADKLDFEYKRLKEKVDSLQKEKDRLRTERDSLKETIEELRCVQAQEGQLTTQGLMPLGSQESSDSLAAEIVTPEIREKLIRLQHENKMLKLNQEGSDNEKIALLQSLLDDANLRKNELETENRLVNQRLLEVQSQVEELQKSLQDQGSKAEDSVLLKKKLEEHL

T3: NIN(1–693)::Strep-tag II (human, UniProt Q8N4C6 1-693)
T3 construct: human ninein (NIN), N-terminal fragment, residues 1-693 of 2,090; also called ninein; source: E. coli Rosetta, purified (Ni-NTA, TEV cleavage, Strep-Tactin; dialysis or SEC); not shown: 6xHis::MBP, N-terminal, cleaved; Strep-tag II (after linker GSGSGR), C-terminal, kept
T3 sequence (looked up): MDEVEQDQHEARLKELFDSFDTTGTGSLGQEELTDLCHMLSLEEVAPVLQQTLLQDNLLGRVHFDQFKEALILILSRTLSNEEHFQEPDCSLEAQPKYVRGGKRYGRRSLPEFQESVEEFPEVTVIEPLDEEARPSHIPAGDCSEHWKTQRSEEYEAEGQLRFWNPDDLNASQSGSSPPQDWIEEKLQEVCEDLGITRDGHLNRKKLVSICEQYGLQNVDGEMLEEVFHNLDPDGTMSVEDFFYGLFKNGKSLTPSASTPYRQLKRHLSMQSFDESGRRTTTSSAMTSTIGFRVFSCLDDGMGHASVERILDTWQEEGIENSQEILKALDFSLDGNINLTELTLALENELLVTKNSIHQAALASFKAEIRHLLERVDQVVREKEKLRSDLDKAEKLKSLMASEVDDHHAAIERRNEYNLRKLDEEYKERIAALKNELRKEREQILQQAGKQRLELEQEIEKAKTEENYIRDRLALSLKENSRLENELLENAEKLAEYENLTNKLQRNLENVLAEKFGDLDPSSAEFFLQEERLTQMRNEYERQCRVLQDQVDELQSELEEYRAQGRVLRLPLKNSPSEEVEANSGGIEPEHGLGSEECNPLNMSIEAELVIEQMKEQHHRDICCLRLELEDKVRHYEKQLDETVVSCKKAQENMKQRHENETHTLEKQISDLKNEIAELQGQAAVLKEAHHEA

B1: GST::LIC2(375–492)::6xHis (domain or fragment, human)
chain: WATPTRASESPARGPSGSPRTQGRGGPASVPSSSPGTSVKKPDPNIKNNAASEGVLASFFNSLLSKKTGSPGSPGAGGVQSTAKKSGQKTVLSNVQEELDRMTRKPDSMVTNSSTENEA
notes: single N-terminal tryptophan added in the construct; also called LIC2-C; source: E. coli BL21, purified (glutathione agarose, Ni-NTA; dialysis or SEC); not shown: GST, N-terminal, kept; 6xHis (after linker GSGSG), C-terminal, kept
B2: GST::LIC1(402–471)::6xHis (domain or fragment, human)
chain: WPGGSPRTPNRSVSSNVASVSPIPAGSKKIDPNMKAGATSEGVLANFFNSLLSKKTGSPGGPGVSGGSPAG
notes: single N-terminal tryptophan added in the construct; human dynein light intermediate chain 1 (DYNC1LI1), residues 402-471; source: E. coli BL21, purified (glutathione agarose, Ni-NTA; dialysis or SEC); not shown: GST, N-terminal, kept; 6xHis (after linker GSGSG), C-terminal, kept
B3: GST::LIC1(414–471)::6xHis (domain or fragment, human)
chain: WSSNVASVSPIPAGSKKIDPNMKAGATSEGVLANFFNSLLSKKTGSPGGPGVSGGSPAG
notes: single N-terminal tryptophan added in the construct; human dynein light intermediate chain 1 (DYNC1LI1), residues 414-471; source: E. coli BL21, purified (glutathione agarose, Ni-NTA; dialysis or SEC); not shown: GST, N-terminal, kept; 6xHis (after linker GSGSG), C-terminal, kept
B4: GST::LIC2(375–450)::6xHis (domain or fragment, human)
chain: WATPTRASESPARGPSGSPRTQGRGGPASVPSSSPGTSVKKPDPNIKNNAASEGVLASFFNSLLSKKTGSPGSPGAG
notes: single N-terminal tryptophan added in the construct; source: E. coli BL21, purified (glutathione agarose, Ni-NTA; dialysis or SEC); not shown: GST, N-terminal, kept; 6xHis (after linker GSGSG), C-terminal, kept

Target: T1, RILP(1–401)::Strep-tag II
Assay: pull-down; GST::LIC::6xHis (50 pmol) with 50 or 250 pmol adaptor and glutathione agarose, 1 h at 4°C, 150 μL of 50 mM HEPES, 100 mM NaCl, 5 mM DTT, pH 7.5, 0.1% Tween 20; Coomassie staining and immunoblot against Strep-tag II
Details: both partners purified

binding result | Binder
binds | B1
binds | B2
binds | B3
binds | B4

Target: T2, HOOK3(2–552)::Strep-tag II
Assay: as above
Details: both partners purified

binding result | Binder
binds | B1
binds | B2
binds | B3
binds | B4

Target: T4, BICD2(2–422)::Strep-tag II (human, UniProt Q8TD16 2-422)
T4 construct: human bicaudal D homolog 2 (BICD2), N-terminal region, residues 2-422; also called bicaudal D homolog 2; source: E. coli BL21, purified (Ni-NTA, TEV cleavage, Strep-Tactin; dialysis or SEC); not shown: 6xHis::MBP, N-terminal, cleaved; Strep-tag II (after linker GSGSGR), C-terminal, kept
T4 sequence (Q8TD16 2-422): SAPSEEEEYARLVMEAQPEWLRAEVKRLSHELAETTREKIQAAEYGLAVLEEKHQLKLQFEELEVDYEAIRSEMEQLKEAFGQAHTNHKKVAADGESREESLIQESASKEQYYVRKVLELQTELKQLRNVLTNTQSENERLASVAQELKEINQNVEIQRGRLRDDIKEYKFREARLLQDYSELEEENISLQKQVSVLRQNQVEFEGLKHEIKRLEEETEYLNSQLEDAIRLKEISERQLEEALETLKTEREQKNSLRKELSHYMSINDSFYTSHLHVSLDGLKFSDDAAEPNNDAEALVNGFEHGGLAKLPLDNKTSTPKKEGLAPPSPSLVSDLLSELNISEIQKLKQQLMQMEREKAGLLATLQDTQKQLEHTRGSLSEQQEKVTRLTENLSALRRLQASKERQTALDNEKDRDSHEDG
Assay: as above
Details: both partners purified

Binder | binding result
B1 | binds
B2 | binds
B3 | binds
B4 | binds

Target: T3, NIN(1–693)::Strep-tag II
Assay: as above
Details: both partners purified

binding result | Binder
binds | B1
binds | B2
binds | B3
binds | B4
